Target: the molecule itself
Assay: cross-linking

B1: recombinant human glutamine:fructose-6-phosphate amidotransferase 2 with C-terminal HisTag (rhGFAT2-his) (enzyme, UniProt O94808 2-682, looked up)
chain: CGIFAYMNYRVPRTRKEIFETLIKGLQRLEYRGYDSAGVAIDGNNHEVKERHIQLVKKRGKVKALDEELYKQDSMDLKVEFETHFGIAHTRWATHGVPSAVNSHPQRSDKGNEFVVIHNGIITNYKDLRKFLESKGYEFESETDTETIAKLIKYVFDNRETEDITFSTLVERVIQQLEGAFALVFKSVHYPGEAVATRRGSPLLIGVRSKYKLSTEQIPILYRTCTLENVKNICKTRMKRLDSSACLHAVGDKAVEFFFASDASAIIEHTNRVIFLEDDDIAAVADGKLSIHRVKRSASDDPSRAIQTLQMELQQIMKGNFSAFMQKEIFEQPESVFNTMRGRVNFETNTVLLGGLKDHLKEIRRCRRLIVIGCGTSYHAAVATRQVLEELTELPVMVELASDFLDRNTPVFRDDVCFFISQSGETADTLLALRYCKDRGALTVGVTNTVGSSISRETDCGVHINAGPEIGVASTKAYTSQFISLVMFGLMMSEDRISLQNRRQEIIRGLRSLPELIKEVLSLEEKIHDLALELYTQRSLLVMGRGYNYATCLEGALKIKEITYMHSEGILAGELKHGPLALIDKQMPVIMVIMKDPCFAKCQNALQQVTARQGRPIILCSKDDTESSKFAYKTIELPHTVDCLQGILSVIPLQLLSFHLAVLRGYDVDFPRNLAKSVTVE
For B1, the “stoichiometry N” value was 4.

From paper doi:10.1101/2020.07.13.201285 (bioRxiv, 2020)
